Experimental data: the RNAGym collection of RNA variant scans (doi:10.7554/elife.80360)

B1: Hammerhead Ribozyme (parent)
chain: ACCGGAUGUGCUUUCCGGUCUGAUGAGUCCGUGAGGACGAAACAG

Variants of: B1
Test: self-cleavage, relative activity (ratio to wild type); higher = more cleavage; co-transcriptional

| Variant | self-cleavage |
| --- | --- |
| U19C A26C | 0.367 |
| G5A A37C | 0.542 |
| G5C U7G | 0.611 |
| U7C A23U | 0.339 |
| U9A G10U | 1.07 |
| G35A A40U | 0.317 |
| G17U G27U | 0.513 |
| G22C C38G | 0.386 |
| C38G A44G | 0.833 |
| C2U G18A | 1.19 |
| A40U G45U | 0.398 |
| G22U A40G | 0.288 |
| U13C U32G | 0.808 |
| C2U G8C | 0.871 |
| C20G G27C | 0.252 |
| G8C G27U | 0.519 |
| G25C G27A | 0.285 |
| U21C G31C | 0.678 |
| U14A A40G | 0.296 |
| C30G U32A | 0.632 |
| G4A G10U | 0.734 |
| C11A A41C | 0.371 |
| C15U U21C | 0.556 |
| U21G G31C | 0.577 |

| Variant | self-cleavage |
| --- | --- |
| A23G G31C | 0.442 |
| U12A G27A | 0.77 |
| A6U U32C | 0.988 |
| C16G C29A | 0.39 |
| A34U C38A | 0.409 |
| G17U G35C | 0.405 |
| C20U A41G | 0.349 |
| G8C U32C | 1.46 |
| U24C G27C | 0.559 |
| U24C G27U | 0.335 |
| G4C U24G | 0.599 |
| G4A U13A | 1.01 |
| U28G G39C | 0.323 |
| G5C A41C | 0.249 |
| G31C A41C | 0.306 |
| C3A G31U | 1.05 |
| C11G G39U | 0.301 |
| G27U G45C | 0.365 |
| G4U C16U | 1.05 |
| G18U G22A | 0.344 |
| G17C A37U | 0.359 |
| A1U G39C | 0.356 |
| C2G A26G | 0.292 |
| U19G U21C | 0.471 |

| Variant | self-cleavage |
| --- | --- |
| C11A U13C | 1.01 |
| G5A G45U | 0.587 |
| G8C G33A | 1.11 |
| U21C A26U | 0.503 |
| G10A U19G | 0.464 |
| A23U C38U | 0.341 |
| A1C C16A | 0.453 |
| A1C U13C | 0.513 |
| U24G C30G | 0.727 |
| U24G G36C | 0.452 |
| A23U G27C | 0.308 |
| C11U U13C | 0.915 |
| A37C A44U | 0.368 |
| G35A G39A | 0.312 |
| G22A A26G | 0.269 |
| G22A A26C | 0.316 |
| A23C A41G | 0.394 |
| G25C G39U | 0.33 |
| U32A A37C | 0.936 |
| G31A G39U | 0.315 |
| C16U G39U | 0.378 |
| C2G G27C | 0.303 |
| U9C U13A | 1.18 |
| G35A G45A | 0.452 |

| Variant | self-cleavage |
| --- | --- |
| G4U G10A | 0.588 |
| G4U G10C | 0.469 |
| U9A U13G | 1.1 |
| G10A U13A | 1.72 |
| G25A A37U | 0.272 |
| U9A G22A | 0.282 |
| A41C G45U | 0.41 |
| U19G U28G | 0.355 |
| G35A C38U | 0.587 |
| G36A C38A | 0.345 |
| A41G A44G | 0.692 |
| U14A C30U | 0.96 |
| C3G G10C | 0.52 |
| G8U C30A | 0.803 |
| U7G G36C | 0.557 |
| G17C C38A | 0.451 |
| A34C A41C | 0.354 |
| G5A C30A | 1.08 |
| C20A G33U | 0.548 |
| G25C C29A | 0.243 |
| G33C A34C | 0.801 |
| U19C U28C | 0.572 |
| U19A G25U | 0.35 |
| C3G U24A | 0.511 |

| Variant | self-cleavage |
| --- | --- |
| G4A U7G | 0.335 |
| U7G U19G | 0.304 |
| A6U C16U | 0.655 |
| U24G A44G | 1.49 |
| A6C C11U | 0.592 |
| C2A G4A | 0.322 |
| U13A C30A | 1.31 |
| U32C G45C | 0.425 |
| U28C A42G | 0.251 |
| C11A G22A | 0.348 |
| C2A G25A | 0.31 |
| A6G A37G | 0.674 |
| G4C U32A | 0.743 |
| G8U G27A | 0.922 |
| G8C G17A | 0.663 |
| A6G G18A | 0.486 |
| C29U C43G | 0.319 |
| A6U C43G | 0.342 |
| U19C G35C | 0.492 |
| U21A A40G | 0.271 |
| U12C G45C | 0.73 |
| U12C G45A | 0.777 |
| U13G U28G | 0.973 |
| G27U A40G | 0.298 |

| Variant | self-cleavage |
| --- | --- |
| G18U C29A | 0.538 |
| G31U U32A | 0.802 |
| C15U G45A | 0.842 |
| G10A G27U | 0.431 |
| G10C C38U | 1.16 |
| G5U U19G | 0.379 |
| C38A A42U | 0.283 |
| U9A C30A | 1 |
| C15A U32C | 0.952 |
| U7G U21G | 0.426 |
| U13C U24A | 1.64 |
| A1C U24C | 0.34 |
| G8U A40U | 0.301 |
| A1U G17A | 0.421 |
| A1C U28C | 0.405 |
| U12C A37C | 0.573 |
| G35A C43A | 0.322 |
| G22C G36A | 0.317 |
| U7G U32G | 0.796 |
| U7C G25C | 0.319 |
| U7C U24G | 0.742 |
| G36U A44G | 0.706 |
| G25U G31A | 0.338 |
| C2U G35A | 0.871 |

| Variant | self-cleavage |
| --- | --- |
| C3A C16U | 0.557 |
| G39A A40C | 0.387 |
| C30A | 0.919 |
| U21G G35U | 0.413 |
| C11G G25U | 0.282 |
| U19A A44C | 0.368 |
| A6G U14A | 0.436 |
| U32A G45A | 0.852 |
| G4C G10A | 0.662 |
| C15A A40U | 0.394 |
| G4A | 0.602 |
| U28C C29G | 0.583 |
| C11A C43U | 0.616 |
| A1G A40U | 0.458 |
| G31A U32C | 1 |
| G8U G10C | 1.07 |
| G18A A34C | 0.537 |
| C2G C15A | 0.302 |
| A1G C20U | 0.971 |
| G10C U14G | 0.606 |
| A37U G39U | 0.362 |
| A6C G10A | 0.68 |
| A6G U13G | 0.778 |
